Source: publication PMC3912212

Key:
[1] = target: paclitaxel-stabilized microtubules (bovine brain tubulin) (bovine (purified from juvenile bovine brains)) (UniProt Q6B856); assay: calculated from the TIRF intensity titration (KD) and the single-molecule lifetimes (koff); association rate constant inferred from KD and koff, not measured directly
[2] = target: paclitaxel-stabilized microtubules (bovine brain tubulin) (bovine (purified from juvenile bovine brains)) (UniProt Q6B856)
[3] = target: subtilisin-digested microtubules (C-terminal tails of tubulin removed) (bovine (purified from juvenile bovine brains))
[4] = target: paclitaxel-stabilized microtubules (bovine brain tubulin) (bovine (purified from juvenile bovine brains)) (UniProt Q6B856); assay: TIRF microscopy, fluorescence intensity on microtubules; surface-immobilized microtubules; CCA-GFP with no added salt, 25 mM KCl or 50 mM KCl; line-scan intensity, mean ± SD
[5] = target: paclitaxel-stabilized microtubules (bovine brain tubulin) (bovine (purified from juvenile bovine brains)) (UniProt Q6B856); assay: TIRF microscopy, fluorescence intensity on microtubules; one flow chamber containing both brightly-labeled microtubules and dimly-labeled, subtilisin-digested microtubules; CCA-GFP in solution; line-scan intensity, mean ± SD
[6] = target: paclitaxel-stabilized microtubules (bovine brain tubulin) (bovine (purified from juvenile bovine brains)) (UniProt Q6B856); assay: TIRF microscopy, single-molecule assay for microtubule-associated proteins; rhodamine-labeled microtubules immobilised on the surface by anti-rhodamine antibodies; CCA-GFP in solution; lifetimes of tracked single molecules, exponential fit, corrected for photobleaching
[7] = target: paclitaxel-stabilized microtubules (bovine brain tubulin) (bovine (purified from juvenile bovine brains)) (UniProt Q6B856); assay: TIRF microscopy, fluorescence intensity on microtubules against concentration; fluorescently-labeled microtubules adhered to cover glass; CCA-GFP introduced at increasing concentrations and allowed to equilibrate; line-scan intensity fit to a Michaelis-Menten curve (binding isotherm)

kon [1]: 8.25e+06 M⁻¹ s⁻¹
normalized 32P band intensity of the INBox motif (CCA auto-phosphorylation) in an in vitro kinase assay with 3 µM microtubules; buffer control 0.62 [2]: 0.92 a.u.
normalized 32P band intensity of the INBox motif (CCA auto-phosphorylation) in an in vitro kinase assay with 3 µM subtilisin-digested microtubules; buffer control 0.62, undigested microtubules 0.92 [3]: 0.64 a.u.
CCA-GFP intensity on microtubules, 25 mM KCl added [4]: 117 a.u.
CCA-GFP intensity on microtubules, 50 mM KCl added [4]: 27 a.u.
CCA-GFP intensity on microtubules, no added salt [4]: 277 a.u.
GFP intensity on undigested microtubules [5]: 375 a.u.
koff [6]: 0.66 s⁻¹
mean residence time on the lattice [6]: 1.5 s
Kd [7]: 80 nM
Substance: CCA-GFP, minimal chromosome passenger complex of INCENP a.a. 491-873 (coiled-coil domain and INBox) and Aurora-B (from UniProt O13024 491-873; Q6DE08 1-361)
